Laboratory results from the supplement of paper PMC10567573.

B1: RPAIN (parent)
chain: ISEYEKSLQFDEKCLSIMLAEWEA

Variants of: B1
Experiment: protein stability index of a GFP-peptide fusion (GPS, HEK-293T) (PSI 1-6); higher = more stable
Settings: c terminus: a fixed tail appended
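Note: lentivirally expressed fusions sorted by FACS into six bins by GFP to DsRed ratio, PSI derived from sequencing read proportions per bin multiplied by bin number.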

Protein stability index of substitutions, site by site:
Y4: H 2.06; K 2.1; M 2.15; A 2.48; C 1.75; N 2.15; T 2.5
A24: W 1.59; T 2; P 2.49; S 1.72; D 2.5; C 1.99; V 1.91
L15: V 2.09; E 4.41; I 3.52; C 2.66; H 3.17; G 3.62; N 3.92
E23: G 4.39; I 2.4; K 2.53; Y 1.61; D 1.62; A 3.07; P 1.65
L19: F 3.03; N 3.73; Q 3.6; A 2.59; M 2.12; R 2.39
M18: Q 2.75; E 1.84; D 3.26; N 2.13; V 1.51; R 1.93
E3: L 1.54; T 2.91; C 1.44; Q 2.05; A 2.31; S 1.68; Y 3.23; H 1.99
W22: A 2.18; K 4.47; F 2.79; P 3.93; G 1.72; V 1.52; T 2.03; L 2.15; R 3.37; I 1.68
E21: D 2.27; P 2.73; Y 1.93; I 3.31; T 3.61; A 2.12
I1: A 2.29; G 1.86; P 2.04; K 2.56; R 2.41
Q9: H 1.85; S 1.7; L 1.46; F 2.88; N 2.32; Y 1.58; T 1.86
E5: M 2.08; W 1.23; R 1.32; N 1.51; Y 2.3; T 1.58; K 2.81; Q 1.92; C 2.24
C14: I 2.16; Q 2.24; T 1.71; K 1.59; Y 1.16; P 3.42; S 1.89
F10: Q 3.51; P 3.43; T 3.01; K 3.53; N 2.9; H 3.33; Y 1.97; M 2.45
K13: A 2.1; Y 3.37; D 1.76; E 1.71; G 1.8; M 1.34
D11: L 3.63; H 1.68
L8: Y 2.27; E 3.45; F 1.9; D 3.69
A20: C 1.77; P 3.02; Y 2.08; E 1.98; V 1.8; D 1.91; T 2.25; H 1.64; L 1.4
S7: N 1.8; R 1.69; F 2.08; Y 1.76; G 1.67
E12: I 1.67; P 1.76; N 2.47; Y 1.33; R 2.33; A 2.34
S2: T 1.91; Y 2.54; L 2.1; Q 1.81; G 1.72; D 1.97; N 2.18; P 2.04; E 1.16; M 2.15; A 2.2
S16: H 2.56; T 2.1; M 1.49; A 2.32; P 2.85; V 1.88; I 2.84; K 2.17; G 2.34
K6: T 1.92; A 2.2; E 1.78; H 1.97; V 1.16
I17: S 2.08; D 2.47; W 1.47; N 2.48; H 2.51; T 2.12; L 1.85; V 2.38; R 2.15; C 1.63
